Earlier results as cited in paper PMC11759867.

Biological target: MD2 (Homo sapiens) (UniProt Q9Y6Y9)
UniProt Q9Y6Y9, sequence (Q9Y6Y9 19-160): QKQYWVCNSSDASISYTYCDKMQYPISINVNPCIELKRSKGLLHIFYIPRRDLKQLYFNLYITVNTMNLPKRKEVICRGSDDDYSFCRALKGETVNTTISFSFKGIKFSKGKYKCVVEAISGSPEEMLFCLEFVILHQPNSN

Kd: 302 nM
Substance: CIRP 106-125 (from UniProt Q14011)
